From a protein production outcome set (Wang et al. 2014)

Experiment: label from the status in PepcDB records

Row | Sequence | protein production
1 | MLLLWLVVLVLGVAYLAHRRTPPAPALGISAAYLILMGVFSHAPGWLLLVFWLLWLAVALPLALPDLRRRVLSGPLFAWFQKVLPPMSDTEREAIEAGTVWWDGELFSGRPDWQKLLDYPKAQLTEEEQAFVDGPTEELCAMVSDWDIGQRMDLPEEAWAFIKQHGFFGLIIPKEYGGKGFSAFAHSQVVMKLATRSGDLASTVMVPNSLGPAELLLHYGTDEQRQRYLPSLAKGDDIPCFALTGPYAGSDAGGMTDVGIVCKGEWEGREVLGLRLTWEKRYITLGPVATLLGLAFKCHDPDHLLGDEEDLGITLALIPTDTPGVEIGRRHVPLGAAFMNGPNSGKDVFVPLEYIIGGQEMIGKGWMMLMNCLSVGRSISLPAVGTSAGKASSYVSGRYAQVREQFNVPIAAFEGIQEALARIGGNAWLMDSARILTANAVDLGEKPSVLSAILKYHLTERGRECIAHAMDIHGGKGIIMGPNNYLGRSWQGAPIFITVEGANILSRNLMIFGQGAIRCHPYVLKEMELAQREDKDQAAREFDALLVKHIGFAVGNAASSFLLSLSCGHLGNAPGDRISRPYFRALNRLAASFALLADFSMMLLGGELKRKERLSARLGDVLSYLYLGSAALKRYHDLGNPDYLHPLLRWAMEENLGKAEAALEDLLNNFPSRFFGCALKVLVLPFGRRHKGPGDELDAEIAEILGRPDDDPALQAILAGAFLPKDPQDPVGALAHAFDAVRESAALEKTLHKAIKEGRVQPQAGQNPIDAGAAAGVLSAEQAQALHQAEAARRKVIDVDDFAKEELQLADGRIR | failed
2 | MPIELRRLRALRLAWGVALCLAVSFGIGLPVPILAPVFAVLLLAMRSQPLPLRAAPALALLVLLACGSGLLLIPLLRHAPLAGVLLVGVGVFLTLRYALKGGNGLLANLLVVGLTMIAAAGTSDFTLALSVVEALAKGMLLAVLGTSVVHTLFPEPANAPAPPVPPLLGSEHVSWVALRATLIVMPAFLLALIAPDQYMPLIMKAVSVGQQAGETRARHASRELIGSTLLAGVLAIALWVALSLFVHLWMFFLWVLLFALWQARRLYQAVPSRQSPAYWVSCLTTMLILLGQSVQDSAGGQDVYKAFAVRMALFLAVSVYASAMLIWIDRLRSRRGLLRG | failed
3 | MSNEHKASIDGGQWAQCVRERGWLWDVAQGVEVQSAPTLILAHGAGAPMDSGFMNDIAVRLAGHGVNVLRFEFPYMAQRRLDGGKRPPNPAPRLLECWREVHALVRPYVTGVLALGGKSMGGRMASLLADELQADALVCLGYPFYAAGKPEKPRVAHLADLSVPSLIVQGERDALGNRQAVEAYTLAPGIELYWLTAADHDLKPLKASGFSHEQHLESAALKVAAFLKALS | failed
4 | MSQFAINIMFVGGSFLLYIAIAVWAKAGSTSDFYVAGGGVHPITNGAAIGADWMSAASFISMAGLIAAGGYANSTFLMGWTGGYVLLAMLLAPYLRKFGKFTVPEFIGDRYYSANARLVAVICLIVASVTYVIGQMAGAGVAFSRFLEVDATTGLIIAAVVVFVYAVLGGMKGITYTQVAQYCVLIVAYTIPAVFISIQLTGNPIPGLGMFSTHTDSGLPLLEKLNQVITDLGFNEYTADVDNKLNMVLFTLSLMIGTAGLPHVIIRFFTVPKVADARWSGGWALVFIALLYLTAPAVASMARLNLMTTIYPDGTQAAPIEYDERPNWVKEWEVTGLIQFTDKNEDGRIQLYNDVPAFEAEAQARGWNGNELVVNRDILVLANPEIANLPGWVIGLIAAGGLAAALSTAAGLLLAISSAVSHDLIKGRFNPSISDKGELMAARISMAVAIVVATYLGANPPGFAAQVVALAFGIAAASLFPALMMGIFSKRVNNVGATLGMLSGLLFTLIYIFVYKGWLFIPGTNNLPDTPENWVLGISPLSIGAVGALVNFAVAFAVSKATAEPPVEIQELVESVRYPRGAGTAQDH | failed
5 | VENLKAQALCSWTAKKDNHLNFSKHDIITVLEQQENWWFGEVHGGRGWFPKSYVKIIPGSE | not failed
6 | MLSFILSIFPIVLLIYLMVKRNALPSYVALPWVATLVMGVHLLHFNTDIVTISANVVSAIIAVQTPITVIFGAILFNRFSEISGATNIMRKWLGNINPNPVAQLMIIGWAFAFMIEGASGFGTPAAIAAPILVGLGFHPLKVAMLALIMNSVPVSFGAVGTPTWFGFGALKLSEDMILEIGSITAFIHSIAALIIPLLALRILVNWDDIRKNIVFIYISVLGCVVPYFLIAQVNYEFPSLVGGAIGLFISVWAANRNIGLAKVTNTLDNNAVSAGEVVKALFPTGLLIAFLIVTRIHQLPFKAMMNDATIWFSTTLGSLGLFEISKGLIFSLKNIFGSNVSSSYKLLYVPALIPFVITVLIAIPFFKISSSNVKQILVSSLQQSKNPFIALIGALVMVNLMLVGGEHSMVKIIGRTFAEISGSNWTIFSSFLGAIGSFFSGSNTVSNLTFGSVQLSTAETTGISVALVLALQSVGGAMGNMVCINNIVAVSSVLNISNQEGTIIKKTIIPMIIYGIIAALGALFLVPLFYNL | failed
7 | DSTGKTKTAYDFSAGGISPDAPLVVLFHGLEGSSRSHYAVELMLAVRNRGWHGAVVHFRSCGGVANTAPVFYHLGDTAEIAFALDTLTARYREIYAVGVSLGGNAPAKYLGEQGKKALPHASAAVSAPVDAEAAGSRFDSGITRLLYTRYFLRTLIPKARSLQGFQTAFAAGCKTLGEFDDRFTAPLHGFADRHDYYRQTSCKPLLKHVAKPLLLLNAANDPFLPPEALPRADEASEAVTLFQPAHGGHAGFVSST | failed
8 | MESMSMNHRVVRHCHNKKLQQSRYSPYSKENIISTIEKEMQKDEAIRLGVELSLFVAETMVLLSDNLRSMLLFCLWVLTNAECTYFTDPVVGRLHCVMLYVLETYIKPKNGVYLADVKSNQWEVFVKSCKSFVFGIRELDRIVLILGKRESSSCEVVKTSDFEHCNQELKKLEETLRSAKDVSEANGFAREVIKSNILCLWKSLFETSQPKVINLKNRTLDMFKPLLNQAREITCSSLIASLHI | failed
9 | MTRRPLLLPALGLALGVGLGLEGATVPPAALGALPLALLPRLAPLAFAAAGWLAAASARVPPAAPPDGAVLVRGRVVGAPDRLEDRLRFPVRTAGGALLEAWAEPTPWPLALGDEVLFRATLRAPAGRRNPGGRDPGDRLRSGGAALVALADGPVVRTAAPAAASRLERARDRLAEAAGRWLPPDQAALVRAIGTGDRAALDPEASASFARSGLAHVLAVSGFHLVVVAFGLERLLRALLLRADAVAARADPRRVAAALTLPCALLYALATGAGAPVVRAALAAAVILAGALLDRAADPLNSLALAALAILAAEPAALLDASFQLSFAAVAGLALWATPLRGALPVARPAPGSWRARLLEPFLSGAAATVAATLATAPVLAFHFRQLPLLGVAANVAAIPLGAALTALAALAAVAAAASPLAAAPFLLAAGPLAAALRAVSDAAAAPRWGAVGLASPGGWAAAAATALVLGVPALPRRLRLGAGALAAALLLLPGPLRAAAARARGGLEVIFVSVGQGDAALLRLPDGSAVLVDGGGAAGGGPDPGARDLVPLLRDLGVRRLEAVFVSHPHPDHVLGLEAVARAFPVARAYSNGDRGDGPAREVLAALAPVTLAPGEAWERAGVRFEALGGDRTPFAANDASLVLRATYGATTFLFPGDVEAAGEAAAVARGGLRADVVKIPHHGSRTSSTEPFVRAVRARWAVACLGAHNRFGFPHPEPLARWAAAGAEVLRTDEGAVRFLSDGRAVRRVEAGSVLDALATWREQP | failed
10 | MDEADSGGIVTARNVDLSSCDRELVQYPEAIQPHGAMLTVDEQSDRVLHASANCAAFIGKPPEAVIGAPIAAVLGAGWHELLGSLHRMPLDSGPVNIARESFLGSDQGWHLFAHRCGGLIILEFEKAEPEAAGTTSNLYSEVRADLAALQATEGVQAFFDLAVERIRAFTGYDRVMAYRFAEDGSGQVIAEARRDDLEPYLGLHYPATDIPAPARRLFALSWVRHLPDVGYTPVPLLAAKSPLVTGPVDMSFASLRSVSVMYTGYLKNMGVQSTLVMPLVKEGRLWGLISAMHHAAPRHISHQMRMAAEFLAHTLSLLMSAKEDAEQFERSSARKAAAEALTRLLDSEADIGAALHAAGALDLLSALIDAGGVVVQTGDEVATRGEAPAAAPLHELTSWLRERARPVFATDRLPNLDPAAQAVASQASGVLALRPLPDQPMLIAWLRPEQIEDVQWAGDPRKPVEISDADGMQRLRPRNSFALWKESVQGRAVPWRDDEKDAATRLAAAIAEIAAARKGRIERINRALDASHSELSRYTDVASAELKEHLRGIHHLTTSLRRRQGEVLDEEGRQQVATILKLTQRMDALVDALLDRSRGGSEAASETVDLEAVVDDALAPFARRIAEDRIEVRRPMRLGTAQGHREWIGEVFTNLIGNAIRYNDKPERWIEIGVEAGSPPRYYVRDNGIGIADTDQQLVFQMFHRVDQSEQKAEGAGVGLAMTRRIVAHHGGRIWVQSRLGEGATFYFTLAPDEERHDA | failed
11 | QQNIVLSIQDRLQQLPKSERKIAEYILKNTETVISMNAQELAKQAGSSPAAIIRFCHSMDVNGFTELKLLLSANLGQMKQQMYTEVTKGESTADIKQKLQARFVHVVERSGQTLE | not failed
12 | MPFWLEVVINVAFSYLASVGFALTINVPHRALNLSGISGTVGWMAYWFCFRLGAGRMASNLIGAFLIGILGLVFARIKKCPVTVFNIPALVPLVPGMPAYQAVRAFVVGDYIQGQELILRVAIVTGAIGLGFLLSTMCTEAFYKIRYRHFRNTGLYFKRKK | failed
13 | MPGFKSDLLIKRMDNEMETWILPTIPAFESTAEIAKIYRVRHQEAIEKSSDIYHFSGFIQEQIVCSLTLTVMGDCARIDDVATFPKYQKNGYATQLILSELQILKDTNISWCFLEASADGLNIYKKIG | not failed
14 | MSVKAYLELIRVHNVVGSAVSAFMGYVIATTWKFTPLFFLPLLVVSLIAAGGYVINDVYDIEVDKINKPERPLPSGRIAVNIARRFSIVLFAVGLIISIPLGLIPFGFALITIVLLYEYARSLKKLGLVGNFIVALTSALSAYYGGLASGSLLGNFIIPTIYIFFFTLSREFVKGIEDIEGDKRNGVNTLAVKLGEKSTWIIAKIILGILIFTSPLPYFLGFNVIYLIGILALDVLLVYILILHNTIESATKARSLMKIYAIGTLIVFTLGSLRI | failed
15 | MILLKSLYKGFFAAMKEENFEARCYNREKGGCVLIKTMQYKKTMATVVALIVALLLFGLIYDLLGVQKNELAAQKSAQPKVKTARVVANGDILIHDILYMSARKADDTYDFTPYFEYVKDWISGADLAIGDYEGTISPDYPLAGYPLFNAPEEIAGALKNTGYDVVDLAHNHILDSQLDGALNTKKVFHQLGIDSIGIYDKDRSKESFLIKNVNGIKIAILGYSYGYNGMEATLSQEDYEKHMSDLDEAKIKKELQLAEKKADVTIVMPQMGTEYALEPTAEQKELYHKMIDWGADVVLGGHPHVIEPSETVIKGRQKKFIIYSMGNFISNQRLETVDDIWTERGLLMDLTFEKKDNKTKIKTVEAHPTMVLAKGKGIVGKEGFELYNYRTMVLEDFIKGGKYHDKIDEETKAKVALAYQEINDLVNLKW | failed
16 | MKSTFSVLFFVKKDKQKINGSYPIFVRITIDGVASRFNSKLDVQPKLWDGKAGKAAGRSAEATRINRLLDDINASLNTIYHELQRRDNYVTAEKVKNEFLGHSENHDTILNLFQKHNDDVKQLVGISKTIATYRKYEVTRRHLAEFIQSKYNLSDISIKEITPMFITDFELYLRTTCKCGYNTTAKFMQFFKRIILIARNNGILIGDPFANYKIRLEKVDRGYLTEDEIKIILKKKMVSERLEQVRDVFIFSCFSGLAYVDVANLKEDNIRKSFDGNLWIITKRQKTNTDVNVPLLDIPKMILEKYKGKLPNGKVLPIISNQK | not failed
